Measured values reported in US20250114430A1 (UNIVERSITY OF NORTH CAROLINA AT CHAPEL HILL, published 2025).
One block for each binder: values may come before it.

Experiments:
[1] = molecular target: T1, Orai1 plasma membrane Ca^2+ channel (endogenous, HEK293T cells and ARDS patient immune cells) (UniProt Q96D31 1-301, limits assumed); assay: cell-based or functional assay
[2] = molecular target: T1, Orai1 plasma membrane Ca^2+ channel …; assay: cell-based or functional assay; remark: listed apart in the source
[3] = molecular target: T2, peptide of Orai1's second extracellular loop (OP2); assay: dynamic light scattering (Z-average)
T2 construct: Peptide corresponding to amino acids 195-234 of Orai1
T2 peptide: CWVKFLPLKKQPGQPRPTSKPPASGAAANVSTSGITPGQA
Text: (§1) Endogenous Orai1/store operated Ca²⁺ influx have been extensively studied in HEK293T cells, so this cell type was used to understand ELD607-Orai1 interactions. […] Thapsigargin is a SERCA pump inhibitor that prevents uptake of cytosolic Ca²⁺ into the endoplasmic reticulum. Thapsigargin is commonly used to stimulate Orai1/store operated Ca²⁺ influx. […] Dynamic light scattering (DLS) was used to evaluate binding of ELD607 to peptides of Orai1 extracellular loops. […] Thus, it was concluded that ELD607 interacts with Orai1.

[4] = molecular target: T3, Orai1 extracellular peptide 1 (OP1); assay: dynamic light scattering, Z-average increased
T3 peptide: EVQLDADHDYPPGL
Text: as §1

T1 sequence (Q96D31 whole entry): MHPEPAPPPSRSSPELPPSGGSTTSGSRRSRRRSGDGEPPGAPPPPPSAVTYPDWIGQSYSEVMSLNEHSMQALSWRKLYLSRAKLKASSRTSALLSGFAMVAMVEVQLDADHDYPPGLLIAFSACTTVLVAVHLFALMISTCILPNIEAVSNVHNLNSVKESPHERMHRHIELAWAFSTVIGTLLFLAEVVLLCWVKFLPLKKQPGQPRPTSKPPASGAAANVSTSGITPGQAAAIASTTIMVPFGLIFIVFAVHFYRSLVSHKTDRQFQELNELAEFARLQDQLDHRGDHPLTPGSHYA

IC50 (Molar), Ca^2+ influx after Ca^2+ add back, HEK293T cells [1]: 3.7e-08 Molar
IC50, inhibiting store operated Ca^2+ influx in HEK293T cells [2]: 124 nM
Binder: DITLVHDIVNMLIHGL [ELD100 peptide]

binding result [3]: no binding
binding result [4]: binds
IC50 (Molar), Ca^2+ influx after Ca^2+ add back, HEK293T cells [1]: 8.1e-08 Molar
IC50, inhibiting store operated Ca^2+ influx in HEK293T cells [2]: 9 nM
B1: ELD607 (peptide)
peptide: VHDIVNMLIRG
notes: Synthetic 11-residue peptidomimetic derived from ELD100 (H14R, deletion of positions 1-4, L16 deletion); also called ELD142-11
